The labels stand for the following.
B1: hz137G11D10-2.2 (antibody, human IgG1, kappa, V domains shown)
VH: QVQLQESGPGLVKPSQTLSLTCTVSGYSITSDYAWNWIRQHPGKGLEWIGYITYSASTSYNPSLKSRVTISRDTSKNQFFLKLSSVTAADTAVYYCARGAGTYYFDYWGQGTLVTVSS
VL: DIQMTQSPSSLSASVGDRVTITCITSTDIDEDMNWYQQKPGKAPKLLIYEDNSLRPGVPSRFSGSGYGTDFTLTISSLQPEDFATYYCLQTNNLPLTFGQGTKVEIKR
notes: Humanized, human IgG1/kappa
B2: hz137G11D10-1.1 (antibody, human IgG1, kappa, V domains shown)
VH: B1 VH with F80S
VL: ETTLTQSPAFMSATPGDKVNISCITSTDIDEDMNWYQQKPGEAAKLIISEDNSLRPGIPPRFSSSGYGTDFTLTINNIESEDAAYYFCLQTNNLPLTFGQGTKVEIKR
notes: Humanized, human IgG1/kappa
B3: hz137G11D10-3.1 (antibody, human IgG1, kappa, V domains shown)
VH: B1 VH with F80S
VL: B1 VL with Y49S, G64S
notes: Humanized, human IgG1/kappa
B4: hz137G11D10-1.2 (antibody, human IgG1, kappa, V domains shown)
VH: B1 VH
VL: B2 VL
notes: Humanized, human IgG1/kappa
B5: hz137G11D10-3.2 (antibody, human IgG1, kappa, V domains shown)
VH: B1 VH
VL: B1 VL with Y49S, G64S
notes: Humanized, human IgG1/kappa

Substitutions are numbered along the chain they refer to.

In the first assay the target is T1, ROR1 naturally expressed on human tumor cell lines (A549, Jeko-1, SW620, PA-1) (human, UniProt Q01973 30-937).
T1 construct: whole, on cells; also called cells expressing ROR1
T1 sequence (Q01973 30-937): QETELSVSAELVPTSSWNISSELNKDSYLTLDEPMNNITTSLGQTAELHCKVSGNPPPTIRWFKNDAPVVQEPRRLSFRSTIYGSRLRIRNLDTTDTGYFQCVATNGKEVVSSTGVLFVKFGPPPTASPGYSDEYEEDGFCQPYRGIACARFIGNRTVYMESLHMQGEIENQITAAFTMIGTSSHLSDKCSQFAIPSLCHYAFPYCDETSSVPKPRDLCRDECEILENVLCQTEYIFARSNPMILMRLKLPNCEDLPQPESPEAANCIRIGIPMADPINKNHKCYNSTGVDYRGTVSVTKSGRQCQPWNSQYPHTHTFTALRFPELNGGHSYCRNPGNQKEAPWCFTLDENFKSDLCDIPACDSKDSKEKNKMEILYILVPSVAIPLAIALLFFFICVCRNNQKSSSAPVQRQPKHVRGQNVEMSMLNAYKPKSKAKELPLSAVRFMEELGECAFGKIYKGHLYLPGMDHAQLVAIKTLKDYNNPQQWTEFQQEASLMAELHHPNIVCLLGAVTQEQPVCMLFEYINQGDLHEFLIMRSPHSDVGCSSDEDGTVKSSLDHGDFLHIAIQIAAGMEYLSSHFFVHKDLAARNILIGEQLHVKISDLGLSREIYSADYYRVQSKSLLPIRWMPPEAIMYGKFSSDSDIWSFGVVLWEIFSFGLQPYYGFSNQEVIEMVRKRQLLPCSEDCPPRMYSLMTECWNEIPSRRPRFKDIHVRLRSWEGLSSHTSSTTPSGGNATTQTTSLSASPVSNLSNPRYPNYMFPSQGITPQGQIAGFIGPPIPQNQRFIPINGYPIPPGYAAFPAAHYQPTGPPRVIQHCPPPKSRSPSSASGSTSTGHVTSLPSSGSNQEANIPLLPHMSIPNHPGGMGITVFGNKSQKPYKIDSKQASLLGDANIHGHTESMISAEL
Briefly: FACS on PA-1 cells naturally expressing ROR1.
Regarding B1, the concentration giving a half-maximal response (EC50) was 0.061 nM and the “Top (MFI)” value came to 233000 MFI.
For B2 the same measures were 0.075 nM and 244000 MFI.
For B3, the response was half-maximal at 0.063 nM (EC50) and the “Top (MFI)” value worked out at 231000 MFI.
Regarding B4, the 50% effective concentration (EC50) was determined as 0.092 nM and the “Top (MFI)” value was determined as 248000 MFI.
On to B5, for which the EC50 was 0.054 nM and the “Top (MFI)” value is 225000 MFI.

For the next assay, the target named is T1, ROR1 naturally expressed on human tumor …. Briefly: FACS on SW620 cells naturally expressing ROR1.
On to B1, for which a half-maximal effect (EC50) was put at 0.009 nM and the “Top (MFI)” value is 28500 MFI.
For B2, the midpoint of the response, the EC50, lay at 0.013 nM and the “Top (MFI)” value stood at 32600 MFI.
For B3, the EC50 amounted to 0.009 nM and the “Top (MFI)” value stood at 30900 MFI.
Consider B4, for which the EC50 is 0.013 nM and the “Top (MFI)” value came out at 31500 MFI.
For the molecule B5, the response was half-maximal at 0.011 nM (EC50) and the “Top (MFI)” value stood at 30700 MFI.

The target is the same in the next assay. Description: FACS on Jeko-1 cells naturally expressing ROR1.
Take B1: a half-maximal effect (EC50) was put at 0.012 nM and the “Top (MFI)” value was determined as 86100 MFI.
With B2, a half-maximal effect (EC50) was put at 0.015 nM and the “Top (MFI)” value was 93200 MFI.
For B3, the EC50 came out at 0.012 nM and the “Top (MFI)” value was 87000 MFI.
For B4 the same measures were 0.016 nM and 92500 MFI.
As to B5, the concentration for a half-maximal effect (EC50) came to 0.012 nM and the “Top (MFI)” value came to 86800 MFI.

The target of the next assay is T2, human/cynomolgus monkey ROR1 protein (Acro Biosystems, Cat. No.: RO1-H522y) (human/cynomolgus monkey, UniProt Q01973 30-403).
T2 construct: Bought SPR analyte
T2 sequence (Q01973 30-403 limits assumed): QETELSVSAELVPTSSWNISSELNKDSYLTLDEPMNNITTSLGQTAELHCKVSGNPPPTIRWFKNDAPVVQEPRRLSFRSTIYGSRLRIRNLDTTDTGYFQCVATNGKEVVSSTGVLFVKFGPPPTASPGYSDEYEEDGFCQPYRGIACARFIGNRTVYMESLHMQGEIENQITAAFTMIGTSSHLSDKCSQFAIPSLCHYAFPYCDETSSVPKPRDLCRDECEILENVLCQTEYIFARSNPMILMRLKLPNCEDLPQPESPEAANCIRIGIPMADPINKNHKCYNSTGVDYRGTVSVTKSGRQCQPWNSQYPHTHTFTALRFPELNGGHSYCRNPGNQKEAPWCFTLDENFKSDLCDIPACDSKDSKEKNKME
Description: SPR (Biacore), antibody captured on anti-hIgG CM5 chip, ROR1 protein as analyte, method of Example 5.
Molecule B1 gave a Kd of 0.343 nM, a dissociation rate constant (koff) of 0.000811 s⁻¹ and an on-rate (kon) of 2.37e+06 M⁻¹ s⁻¹.
For B2 the same measures were 0.145 nM, 0.000539 s⁻¹ and 3.72e+06 M⁻¹ s⁻¹.
For B3 the same measures were 0.172 nM, 0.000492 s⁻¹ and 2.86e+06 M⁻¹ s⁻¹.
Consider B4, for which the dissociation constant Kd was 0.105 nM, the koff stood at 0.000414 s⁻¹ and the kon stood at 3.94e+06 M⁻¹ s⁻¹.
Regarding B5, the Kd came to 0.16 nM, the dissociation rate constant (koff) turned out to be 0.000469 s⁻¹ and the kon was 2.92e+06 M⁻¹ s⁻¹.

These data come from patent EP4772535A1 (Chia Tai Tianqing Pharmaceutical Group Co., Ltd., dated 2026).
